Reference: publication PMC4944284

B1: unnamed (parent)
chain: MPGFYEIVIKVPSDLDGHLPGISDSFVNWVAEKEWELPPDSDMDLNLIEQAPLTVAEKLQRDFLTEWRRVSKAPEALFFVQFEKGESYFHMHVLVETTGVKSMVLGRFLSQIREKLIQRIYRGIEPTLPNWFAVTKTRNGAGGGNKVVDESYIPNYLLPKTQPELQWAWTNMEQYLSACLNLTERKRLVAQHLTHVSQTQEQNKENQNPNSDAPVIRSKTSARYMELVGWLVDKGITSEKQWIQEDQASYISFNAASNSRSQIKAALDNAGKIMSLTKTAPDYLVGQQPVEDISSNRIYKILELNGYDPQYAASVFLGWATKKFGKRNTIWLFGPATTGKTNIAEAIAHTVPFYGCVNWTNENFPFNDCVDKMVIWWEEGKMTAKVVESAKAILGGSKVRVDQKCKSSAQIDPTPVIVTSNTNMCAVIDGNSTTFEHQQPLQDRMFKFELTRRLDHDFGKVTKQEVKDFFRWAKDHVVEVEHEFYVKKGGAKKRPAPSDADISEPKRVRESVAQPSTSDAEASINYADRLARGHSL

Variants of: B1
Assay: sedimentation velocity (analytical ultracentrifugation), self-association
Settings: with partner chain of the complex shown; parent: 1; read off a plot

| Variant | ratio to parent |
| --- | --- |
| chain 1 Y224D | 0.1 |
| chain 1 Y224F | 0.69 |
